Results as given in the DeepSol protein solubility set.

Assay: soluble on expression in E. coli; label from the status in PepcDB or PDB records

Question: For “MAHHHHHHMTSTLTNSNRINIPAVCRLRERNTNKTVGSGVLVAQGLLLTSATAIPTQSRATHIVATFFEGTKKSAVDVQLQPQRYYFASRYPPEMDYCLISCEEAPLLNVTPVHMALTGKGWAPVEEGDVVLIVEHPIGDVAGTAAVPLDGKATFSSTLSATGDGDFDSVRAPYTEQKRFEEVLRCRGNVSFLKSNGSWRTAGCPAFNEHGQLVGLQSQSRADGEGVVNRILSLISIVKHLFANVQLPHLPQEDVTFEDVWDTWYVTNDITRILAILANFKGKSMAQQVTWRLCELTAKPQLVKSIASNGGIEVILQNLSLFSSDEKLSESGLRALWNVSIGEEAHLATIIKKEGVQTILDVVESFPANETVLEFGAVLLHNIAGCRAAPNFSEAHGARALKALYPGFQQFRESVVLQKFALSFFATLARLNEDFARDLVQQHVIEHITHLVEEKPKQIFLMEIVVGFVAELAQYPQTVELMCSNTPQYAAASMSYLIDLLIHIILEYKDLDSLLVSGNRALWGLGNVPTCRGIILENPRGIDALRISLPPLIASTHR”, which “soluble on expression in E. coli” value is on record?
Answer: soluble

Question: For “MAHHHHHHMTSTTQPKWTRLPIRTRPHRNPLAENSDNHPDCPAELQEQCTTLFPGMDNPVITLVDVGCAFGGMLFSLAPDFPDMCMLGLEIRPKVVEFAQNKVMKLREGAATDGTSHHYRNVWFEQLNVMKFGSNCFNKGQLQALFFCYPDPHWKRKNVRRRIISPGLVQEYAYWLKVGGFLFTVSDVEELERWMVTCLDGCPLFRQLSQEELAGNEMVRKMLDYAANSSEDAQRTTRKGLQKHYAVHVRVP”, which “soluble on expression in E. coli” value is on record?
Answer: not soluble

Question: Which “soluble on expression in E. coli” value does the source give for “MAHHHHHHMTTERPCGERNGHTHSSSAADGTFDQPDTAVLLYGGLPPMPKPSVQRGEGSMEREFDQAAVSPSPVAAVAASSVVGGDTSPGSSPHIGVHEADDPTKNFDNSTEEEHMDLFISAMSPQNCVDRPQRRARGALMPPLPSPGEADAGAMMQSEMHTTPMTKTHTPDLRVTMYENQELRRELATVRASLRQALQTIETRELECVELHRLVDEMQAQLNGLKPEANLRPTQTDAQGNGEGSTRPEKSAFKLQATKDTTGPQIIGKYESKEEWRMTPSRELFAAEVKHDAHTEASTTTAIAAVKMNATDAPTTVEETISMGQLCEERDRLAKELAQTKIVVAEQETVLDRLGLRFPYPGALVAAARRTIPAFEPLRKSRKQKPGPLVVDRTTQMRGERAERRE” here?
Answer: not soluble

Question: For “MAHHHHHHMVLPLPKLIQSNEGRVLYHVTNHPIRTIKKKIEGFFKYESLDNLNSEISVRQNFDELFVPLTHPARNIKDTFYLSENYVKHFSTLHNNLYTQLENTNGIYKYYLVTKFVHHHNILLKRTHMTAHLPDLLRRNYKNVIYTGSVYRRDEIDRFHFPIFHQTDGFLIRPDNFDVETDLKKNLEQLIRYLFDASDVQMKWEDNTSFPFTDPSYELYIRGESSKEIRTTGDDIGGESRWVEVLGCGKIKKEVIAMAMHAEDIRQIIEDEIARHDRGLLDELQSIETAVNEAAVNEAAVNEGATNEGAVNEGATNEAVARKSNVEWIYPNVPTPKDILDKLCTTTLNNRIEAQMNKFLKTIRYQGWAFGIGLERLAMLLYHIQDIRLFWSNDNRFIDQFEEGVITTFHPFSNFPPVEKDISFYITSQFKEDLFFQICRDVASENIEQVKKIDSYHNPKNNQTSVCYRITYRSHTQNLTHKTVNEMQSKIVQMLVKQCAVTIR”, which “soluble on expression in E. coli” value is on record?
Answer: not soluble

Question: For “MAHHHHHHMVLRPRPLKHSLLRRGRINPAATHREVSLPILLTLVTCPIPRPMQVDRSLWAEGPLQAQHPHSPTHLSRQQVECMLLAGVPPRAFRLQDKPSKVSETAKEAPQGDEEGEPRAQHEADHTTKGGGDDFLDKNGNEKREPPAGSQTAPLPDGGKNAHYYFFLLLPARPATRCHLSADEVVEQRQKFSAMKQLPLGELSVTEVLLNAQPLAHSQGAWTS”, which “soluble on expression in E. coli” value is on record?
Answer: not soluble

Question: For “MAHHHHHHMVVLKGGGTTYAVGNGRQMPWEEVPEGFKRRLAEQEEITPCVELRAIAQRCIEVEGFWAPNCVEATEQFHSCQAQHLAGCLPNWTHHNNNNINN”, which “soluble on expression in E. coli” value is on record?
Answer: not soluble

Question: With “MAHHHHHHMWSPSNKRDSLINSDDTFFPFLFHFPGSHPRQMLSSFFASRSRGSWIPAVDISEQDDGYILVADLPEVKKEDLRVYTESSSIICISGNRKHILKQDEHQLLVAERGAGRFERCFDLPTSVDSSKIKASFNDQQLNLSIPKLRNSKSGASNSVTID” as the sequence, how does the “soluble on expression in E. coli” value read?
Answer: soluble

Question: Which “soluble on expression in E. coli” value does the source give for “MAHHHHHHMYNFFASVNAPSTPPQKQPQVEPSLPPSACHHHVAASSLLDGMTAHNASLWLLNASQQRSLSYAHSGGGGDNLAGAEQEKRTAASQFYSTFPTAAAPPPSSGVQSLHGVGQQPAQQPHKHLCTSILQSYEHVGNSATPAPGLSSSLPLQEHQSSTWVTLRGGSLRMQLDGVPYSPFASTNASAASQPPDAAHGNEQYYDSTSHHRGYSASSASSIRHTLQVPASPQQQHQQQRLPISSSVWTAATPATAMPASLFASSSIRPLTNTTYPGYSCDWSGNALPTLPAAVPAPYVSGAALPVSSRSQTTYSVMPQPPQSGQPCSPTAHPATHSIMILHPTLDRGTAAILQASADAVNTPLHCLTDVKASEISGTTHYLEVVQGGGSVGDNSKHSYPSSIPIASRQPQPPLQQYYLQPTPQQHQQGQQLAAEQPPVHSCFLTNDGNMSHFVNHTTAAGAIIQPPSSMLSDIASLASLSSRTAGAGRSGAWQQPSTADMGSYKDQSSKLQLQQQQQQQQQQRRPVSAARQVTYTRGIPRRNRDRAVLFVGQLNYEATEADVSQVFSCYGKPLSVVVLKDKGKATKKGGAGGITGGSAATHRKVGGSAFVTYGTTLEADTAIMALHGRYNAKGDDVENVDNSKYLQVSYGQQTGLISAFGMMHAEKLHASKPENPIPLLVKDRTNGKL” here?
Answer: not soluble

Question: Which “soluble on expression in E. coli” value does the source give for “MAHHHHHHMYRLVKFLYVNLLASTDLKRKYARAGDWAIVTGATEGIGYAMAMELARRGFNVCVVARTRSKLDAVVAEIEKKGVQGKAVVFDFSTADAQAYKRLFAELELLEVAILVNNVGVNYPYANYFDEADVEEDMKMLKVNCEATLRMTRFIVPRLKAKRSGGIVFLSSISATVPSPLLSAYAGTKSLSLSFGEGLAYELQQFGVDVLTVTPSLVVSRMTQGVSSRKPKETLFMVNAAAMAHQTLNKLGIVTRTAGHINHALLNSCLRILPESLVANKILTMHQAIKRRAERSRTQ” here?
Answer: not soluble

Question: Which “soluble on expression in E. coli” value does the source give for “MAHHHHHHMYSSVRPYKILQKVKRNDNNSNSNSNNNSNSNSNSSSIRNPPNEAKKEPTEREDSGKKKPVEKKKKYEDLKYYECNRKSLSTKSQEAEGRDKITKYNNKTNQHADNNHVKKLQSEKVLKKKEDMLVTLLKKEQSSVHNKKIIIRHLPPTLSEDNFFESFPSNLKDELDYYYYVNGCVPKNQGGDITHSRMYLSFKDDLKTKEFIKTQHGKFFYDSNGGKFKAMVSFAPYQTIIHKNKLDEMNNTLESDAYFLKCCEEMNNPQEPVKKDDDNADLSNVIKEDGVILPPLVVALRKKLKNKKLK” here?
Answer: not soluble

Question: Which “soluble on expression in E. coli” value does the source give for “MAHHHHHHSLSSSLANRNIYTVSRLNSEVRLLLENEMGIVWLVGEISNFSAPVSGHWYLTLKDSQAQVKCAMFKGNNRLVNFKPQNGQQVLVKARLSLYEPRGDYQIILESMQPEGDGRLQQQFEQLKMQLAAEGLFAQTRKKPLPENPRCVGIITSRTGAALHDILHVLKRRDPNLPVVIYPTLVQGEEAAIQIAQAIGRANTRAECDVLIVGRGGGSLEDLWCFNHEIVARTIAASEIPIISAVGHEIDVTIADFVADVRAPTPSAAAELVSRDHRHKQQALHQWQAKLASTMRHYLAQQETQFARLQHKLDKQHPQARLERQQQQLDELSLRLEQKMQQRLATQQQRWDRLSHKIELHSPIHLIRQQRFNLIQQEQRINQSIQRYLIQSRHQLALLSEKLDAVSPLATLARGYSVTRTTQGELVRQSAQVKPGDTLVTQLMDGEILSTVNSREG” here?
Answer: not soluble

Question: For “MAHHHHNSGPLEFTVSANTNPATDAVRESILANPGFGKYYTDHMVSIDYTVDEGWHNAQVIPYGPIQLDPSAIVLHYGQEIFEGLKAYRWADGSIVSFRPEANAARLQSSARRLAIPELPEEVFIESLRQLIAVDEKWVPPAGGEESLYLRPFVIATEPGLGVRPSNEYRYLLIASPAGAYFKGGIKPVSVWLSHEYVRASPGGTGAAKFGGNYAASLLAQAQAAEMGCDQVVWLDAIERRYVEEMGGMNLFFVFGSGGSARLVTPELSGSLLPGITRDSLLQLATDAGFAVEERKIDVDEWQKKAGAGEITEVFACGTAAVITPVSHVKHHDGEFTIADGQPGEITMALRDTLTGIQRGTFADTHGWMARLN”, which “soluble on expression in E. coli” value is on record?
Answer: soluble
